Four molecules from patent publication US20080020412A1, “Aurora expression constructs” (priority 2006, published 2008) can be followed below.

Data set [1] deals with T1, mouse Aurora-A (Mus musculus, UniProt P97477, K218R/M280L/N164G).
T1 construct: mouse Aurora-A residues 98-395; GST (N, cleaved yes); made in house; host or cells: E. coli BL21(DE3) Star, co-expressed with lambda phosphatase; a second 98-395 preparation came from insect cells
T1 sequence (P97477 with tags, fused parts or gaps N164G/K218R/M280L): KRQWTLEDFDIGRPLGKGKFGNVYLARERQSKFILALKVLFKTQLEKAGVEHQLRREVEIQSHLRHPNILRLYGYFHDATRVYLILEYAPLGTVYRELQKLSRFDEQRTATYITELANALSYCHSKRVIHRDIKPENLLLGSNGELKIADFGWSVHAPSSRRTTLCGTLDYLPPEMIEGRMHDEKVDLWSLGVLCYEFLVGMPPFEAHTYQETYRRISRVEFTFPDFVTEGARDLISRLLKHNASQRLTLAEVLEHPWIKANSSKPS
Nature of the data set: Aurora-A activity assay (HTRF, enzyme and ATP titrations, histone H3 peptide substrate). As to conditions: compared with the longer construct, FIG. 4. The format is biochemical. On the procedure:
(§1) Protein samples were diluted to 1 mg/mL and incubated for 2 hrs at 4° C. with 1 mM ATP and 5 mM MgCl2. Excess ATP was removed by extensive dialysis against 50 mM Tris-HCl pH 7.5, 200 mM NaCl, and 3 mM DTT.
(§2) Aurora A was titrated twofold in an assay buffer composed of 10 mM Tris-HCl pH 7.2, 10 mM MgCl2, 0.1% BSA, 0.01% Triton X-100 and 1 mM DTT, and containing 120 nM of biotinylated histone H3 substrate peptide (Upstate Biotechnology). The kinase reactions were initiated by adding 10 μL ATP to a final volume of 60 μL and the final ATP concentration of 20 μM. The reactions were incubated at 25° C. for 60 min and terminated by adding EDTA to a final concentration of 200 mM.
(§3) To determine the Km for ATP, ATP was titrated twofold in the assay buffer. The kinase reaction was initiated by adding 50 μL Aurora A (16 nM of insect cell-produced mouse enzyme with residues 98-395, 8 nM of the bacterially produced enzyme with residues 98-395, and 30 nM of the E. coli-expressed crystallography construct with residues 116-381) and histone H3 to a final volume of 60 μL and a final concentration of 120 nM.
(§4) To detect the assay product, the kinase reaction solution was combined with the detection buffer (the KF buffer) supplemented with 0.4 ng/μL phospho-histone H3 europium cryptate-conjugated antibody and 16 nM streptavidin-XL665 (both from Cisbio) in a 1:1 ratio in a 384-well plate. The mixture was incubated for 45 minutes at 25° C. and the plate was then scanned on the Analyst AD system. The fluorescence value F is defined as the ratio of fluorescent emissions at 620 and 665 nm. ΔF was generated by subtracting the average F value for negative control for enzyme activity from the F value in each reaction well. ΔF was plotted against enzyme concentration (for enzyme titrations) or against ATP concentration (for ATP titrations) with GraphPad Prism. The Km values and confidence intervals were determined by fitting the ATP titration curve in GraphPad Prism to the following equation: y=(Vmax*x)/(Km+x), where y is ΔF/hr and x is an ATP concentration.
Background: Time-resolved FRET reads energy transfer from a long-lived donor to a nearby acceptor.

In data set [2] the test system is mouse Aurora-A. The data set is described as above. As to conditions: for Km / Vmax/[enzyme]: ATP titration; for Km: 120 nM biotinylated histone H3 peptide, 25° C., fit in GraphPad Prism; for Vmax/[enzyme]: ΔF/hr per nM enzyme. The class given is biochemical. On the procedure:
as §1, §2, §3, §4

Data set [3] in a line: Electrospray mass spectrometry of purified protein for proteolysis between residues 291 and 292. The class given is physicochemical. As to conditions: expressed in E. coli, GST-tagged protein. An excerpt:
mAurB 7X was expressed in E. coli, purified as described below, and analyzed by electrospray mass spectrometry to verify the integrity of the purified protein. […] A construct missing the Val291→Ser and Met258→Lys mutations (referred to as mAurB 5X) was purified, and analyzed by mass spec to determine the extent of proteolysis between Val291 and Lys292. Even in this wild type configuration, proteolysis still affected approximately 25% of total GST-tagged protein. Two additional conservative mutations were introduced to eliminate the major site of proteolysis: Val291→Leu and Lys292→Arg referred to as mAurB 8X VK→LR (5′ primer: SEQ ID NO:53; 3′ primer: SEQ ID NO:54) and Val291→Leu and Lys292→Gln referred to as mAurB 8X VK→LQ (5′ primer: SEQ ID NO:55; 3′ primer: SEQ ID NO:56). The protein sequences of the mAurB 8X VK→LR and mAurB 8X VK→LQ are provided in SEQ ID NO:57 and SEQ ID NO:58, respectively.

Another data set addresses T2, mouse Aurora-B (Mus musculus, UniProt O70126, L215S/L233S/M258K/P302T/P322T/V291S/W318S).
T2 construct: made in house; host or cells: E. coli BL21(DE3) Star
Nature of the data set: Aurora-B enzyme activity assay (HTRF). As to conditions: 20 nM construct against 300 nM commercially available Aurora-B. The class given is biochemical. On the procedure: Aurora-B enzyme preparations were tested for kinase activity in the presence and absence of compounds using a homogeneous time resolved fluorescence (HTRF) assay. In brief, the assay was performed by adding enzyme under appropriate reaction conditions to a tagged substrate. After the kinase reaction proceeds, quenching reagent is added, along with a first molecule consisting of a fluorescence donor conjugated to an antibody recognizing the phosphorylated substrate, and a second molecule that recognizes the tag and that is conjugated to a fluorescence acceptor. The extent of the kinase reaction is measured by time-resolved fluorescence transfer from the fluorescence donor to the fluorescence acceptor in a detection buffer, which occurs when the donor and acceptor are in proximity to one another on the phosphorylated substrate.
The assay was carried out as follows. […]
A 5 μL aliquot of the quenched reaction was transferred to a separate plate containing 5 μL detection buffer (final concentrations: 125 ng/mL europium cryptate-conjugated α-phospho H3 antibody, 8 nM streptavidin-tagged XL665, 25 mM HEPES buffer (pH 7.0), 0.25 M KF, and 0.05% BSA). The detection solution was allowed to incubate at room temperature for 45 min, after which the detection reactions were read on an Analyst AD (LJL Biosystems). […] Delta F is a value calculated from the ratio between the 665 nm and 620 nm emissions. […]

B1: E. coli-produced 116-381: E. coli-expressed mouse Aurora-A crystallography construct, residues 116-381 (human residues 125-391) (protein)
chain: KRQWTLEDFDIGRPLGKGKFGNVYLARERQSKFILALKVLFKTQLEKAGVEHQLRREVEIQSHLRHPNILRLYGYFHDATRVYLILEYAPLGTVYRELQKLSRFDEQRTATYITELANALSYCHSKRVIHRDIKPENLLLGSNGELKIADFGWSVHAPSSRRTTLCGTLDYLPPEMIEGRMHDEKVDLWSLGVLCYEFLVGMPPFEAHTYQETYRRISRVEFTFPDFVTEGARDLISRLLKHNASQRLTLAEVLEHPWIKANSSKPS
modifications: Mutated Constructs
Turning to B1, the “change in Km for ATP (in words)” value with mouse Aurora-A [1] is “substantial increase in the Km for ATP”. Besides, in the data set on mouse Aurora-A [2], the Km (as a rule, the substrate concentration at which the rate is half of its maximum) amounted to 65.3 ± 16.1 µM and the “Vmax/[enzyme]” value amounted to 280 h⁻¹ nM⁻¹. In the data set on mouse Aurora-A [2] (H3 peptide as substrate, FIG. 4), the “enzyme activity (in words)” value was “less active”.

B2: insect cell-expressed 98-395: insect cell-produced mouse Aurora-A enzyme with residues 98-395 (human residues 107-403) (protein, UniProt P97477 98-395, looked up, fragment)
chain: GNDSEKEQASLQKTEDTKKRQWTLEDFDIGRPLGKGKFGNVYLARERQSKFILALKVLFKTQLEKANVEHQLRREVEIQSHLRHPNILRLYGYFHDATRVYLILEYAPLGTVYRELQKLSKFDEQRTATYITELANALSYCHSKRVIHRDIKPENLLLGSNGELKIADFGWSVHAPSSRRTTMCGTLDYLPPEMIEGRMHDEKVDLWSLGVLCYEFLVGMPPFEAHTYQETYRRISRVEFTFPDFVTEGARDLISRLLKHNASQRLTLAEVLEHPWIKANSSKPPTGHTSKEPTSKSS
For B2, in the data set with mouse Aurora-A [2], the Michaelis constant (Km) is 13.6 ± 3.9 µM and the “Vmax/[enzyme]” value came out at 590 h⁻¹ nM⁻¹.

B3: E. coli-produced 98-395: bacterially produced mouse Aurora-A residues 98-395 with three humanizing and stabilizing mutations (protein)
chain: GNDSEKEQASLQKTEDTKKRQWTLEDFDIGRPLGKGKFGNVYLARERQSKFILALKVLFKTQLEKAGVEHQLRREVEIQSHLRHPNILRLYGYFHDATRVYLILEYAPLGTVYRELQKLSRFDEQRTATYITELANALSYCHSKRVIHRDIKPENLLLGSNGELKIADFGWSVHAPSSRRTTLCGTLDYLPPEMIEGRMHDEKVDLWSLGVLCYEFLVGMPPFEAHTYQETYRRISRVEFTFPDFVTEGARDLISRLLKHNASQRLTLAEVLEHPWIKANSSKPPTGHTSKEPTSKSS
modifications: Mutated Constructs
notes: bacterially produced mouse Aurora-A residues 98-395 with three humanizing and stabilizing mutations
On to B3, for which, in the data set with mouse Aurora-A [2], the Km is 10.5 ± 3.5 µM and the “Vmax/[enzyme]” value worked out at 1035 h⁻¹ nM⁻¹.

B4: mAurB 7X: truncated mouse Aurora-B with 7 hydrophobic surface residues mutated, GST-tagged (protein, listed as Mus musculus)
chain: KRQFTIDNFEIGRPLGKGKFGNVYLAREKKSRFIVALKILFKSQIEKEGVEHQLRREIEIQAHLKHPNILQLYNYFYDQQRIYLILEYAPRGELYKELQKSRTFDEQRTATIMEELSDALTYCHKKKVIHRDIKPENLLLGSQGELKIADFGWSVHAPSSRRKTMCGTLDYLPPEMIEGRMHNEKVDLWCIGVLCYELMVGNPPFESPSHSETYRRISKVDLKFPSSVTSGAQDLISKLLKHNPSQRLTLAEVAAHPWVRANSRRPS
modifications: GST tag
notes: truncated mouse Aurora-B with 7 hydrophobic surface residues mutated, GST-tagged
Regarding B4, in data set [3], the “extent of proteolysis between residue 291 and Lys292” value is “Approximately 50%”. Besides, the “activity compared with commercially available Aurora-B” value with mouse Aurora-B is “compares favorably”.
